The values that follow come from patent EP4785956A2 (CHUGAI SEIYAKU KABUSHIKI KAISHA, dated 2026).

Changes are numbered by the printed parent chain.

T1: recombinant cynomolgus monkey C5 (cynomolgus monkey, UniProt P01031 19-1676 (human entry), limits assumed)
T1 construct: also called cynoC5
T1 chain: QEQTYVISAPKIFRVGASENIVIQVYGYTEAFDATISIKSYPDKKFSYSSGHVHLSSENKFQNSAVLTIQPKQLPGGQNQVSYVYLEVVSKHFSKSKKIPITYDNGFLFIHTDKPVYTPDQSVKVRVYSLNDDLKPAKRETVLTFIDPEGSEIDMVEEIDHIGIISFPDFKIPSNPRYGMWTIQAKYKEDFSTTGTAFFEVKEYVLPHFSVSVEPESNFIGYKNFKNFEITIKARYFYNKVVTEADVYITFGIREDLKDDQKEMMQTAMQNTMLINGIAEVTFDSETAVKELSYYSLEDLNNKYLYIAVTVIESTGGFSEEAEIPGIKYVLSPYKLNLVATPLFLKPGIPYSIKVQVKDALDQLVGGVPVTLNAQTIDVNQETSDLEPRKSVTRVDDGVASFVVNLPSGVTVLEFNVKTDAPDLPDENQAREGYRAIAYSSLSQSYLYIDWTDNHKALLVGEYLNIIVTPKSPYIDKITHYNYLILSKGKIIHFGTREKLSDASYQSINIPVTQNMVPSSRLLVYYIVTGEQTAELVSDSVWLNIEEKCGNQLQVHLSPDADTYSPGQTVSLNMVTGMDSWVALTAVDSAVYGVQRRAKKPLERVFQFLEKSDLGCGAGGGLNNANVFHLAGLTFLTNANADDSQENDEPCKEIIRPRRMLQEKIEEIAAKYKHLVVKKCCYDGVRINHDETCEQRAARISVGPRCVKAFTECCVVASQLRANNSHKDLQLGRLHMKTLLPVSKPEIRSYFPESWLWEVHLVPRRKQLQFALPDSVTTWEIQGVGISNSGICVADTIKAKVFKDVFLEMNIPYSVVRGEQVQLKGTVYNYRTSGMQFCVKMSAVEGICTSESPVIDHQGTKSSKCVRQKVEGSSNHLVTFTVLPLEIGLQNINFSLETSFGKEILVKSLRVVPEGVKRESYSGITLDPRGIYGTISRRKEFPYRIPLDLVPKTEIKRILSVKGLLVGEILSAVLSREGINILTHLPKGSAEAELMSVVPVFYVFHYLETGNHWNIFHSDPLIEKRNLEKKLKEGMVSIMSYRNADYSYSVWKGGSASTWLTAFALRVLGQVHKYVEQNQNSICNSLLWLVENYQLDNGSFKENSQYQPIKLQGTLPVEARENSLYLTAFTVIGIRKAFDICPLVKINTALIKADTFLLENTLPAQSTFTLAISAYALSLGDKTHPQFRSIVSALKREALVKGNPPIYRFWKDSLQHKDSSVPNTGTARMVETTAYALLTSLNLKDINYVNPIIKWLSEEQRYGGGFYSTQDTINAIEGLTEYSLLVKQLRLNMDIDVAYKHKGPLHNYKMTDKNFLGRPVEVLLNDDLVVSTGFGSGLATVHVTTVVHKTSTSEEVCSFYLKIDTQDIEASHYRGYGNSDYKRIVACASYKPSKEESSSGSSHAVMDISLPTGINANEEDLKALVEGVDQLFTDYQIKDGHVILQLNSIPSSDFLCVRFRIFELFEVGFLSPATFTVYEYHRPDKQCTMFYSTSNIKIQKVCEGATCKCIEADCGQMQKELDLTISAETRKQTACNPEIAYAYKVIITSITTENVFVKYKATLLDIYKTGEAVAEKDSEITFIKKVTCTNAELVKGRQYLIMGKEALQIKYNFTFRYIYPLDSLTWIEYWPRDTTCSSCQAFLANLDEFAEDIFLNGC

B1: CFA0305 (antibody, V domains shown)
VH: QSLEESGGDLVKPGASLAVTCTASGFSSSSSYYMCWVRQAPGKGLEWIGCIYTGSGATYYASWAKGRFTISKTSSTTVTLQMTSLTVADTATYFCASDGGYVTPTHAMYLWGPGTLVTVSS
VL: DVVMTQTPASVSAAVGGTVTIKCQASQNIGSDLAWYQQKPGQPPRLLIYGASKLASGVSSRFSGSGSGKEFTLTISDLECADAVTYYCQCTFVGSSYGNAFGGGTEVVVK
B2: CFA0501 (antibody, V domains shown)
VH: QSVEESGGRLVTPGTPLTLTCTASGFSLSSYYMNWVRQAPGKGLEWIGMIYGSGATYYASWAKGRFTISKTSSTTVDLKMTSLTTEDTATYFCARQIYSGDNNDNFWGPGTLVTVSS
VL: AYDMTQTPASVEVAVGGTVTINCQASESISNWLAWYQQKPGQRPKLLIYRASTLASGVSSRFKGSGSGTQFTLTISGVECDDAATYYCQQDYSSSNVDNTFGGGTKVVVE
B3: CFA0538 (antibody, V domains shown)
VH: B2 VH
VL: B2 VL with K106T
B4: CFA0341 (antibody, V domains shown)
VH: QSVEESGGRLVTPGTPLTLTCTVSGIDLSSYTMGWVRQAPGKGLECIGYIHSFGSTYYASWAKGRFTISKTSTTVDLEITSPTTEDTATYFCARDVGGSSGWDLWGQGTLVTVSS
VL: DVVMTQTPSSVSAAVGGTVTIKCQASENIYSNLAWYQQKPGQPPKRLIYDASDLASGVPSRFSGSGYGTQFTLTISGVQCEDAATYYCQANYDSTSSSFGNVFGGGTEVVVK
B5: CFA0330 (antibody, V domains shown)
VH: QSLEESGGDLVEPGASLTLTCTASGFSWNSGYDMCWVRQAPGKGLEWIACIYTGSSANTAYANWAKGRFTISKTSSTTVTLQMTGLTAADTATYFCARHDDYFFDLWGPGTLVTVSS
VL: DVVMTQTPASVSESVGGTVTINCQASQSIGNNLAWYQQKPGQPPKLLIYDASNLASGVPSRFKGSRSGTEPTLTNTLTISGVQCADVATYYCQSGWYGNSYVAAFGGGTEVVVKR
B6: CFA0666 (antibody, V domains shown)
VH: QSVEESGGRLVTPGTPLTLTCTVSGFSLSTYAMGWVRQAPGKGLEWIGTIDTGDNSFYANWAKGRFTISKTSTTVDLKITSPTAEDTATYFCARNDGSVYNLFNLWGPGTLVTVSS
VL: DVVMTQTPASVSAAVGGTVTIKCQASENIYSALSWYQQKPGLRPRLLIYYASTLASGVPSRFKGSRSGTEFTLTISDLECADAATYYCQQYYDINSVDNTFGGGTKVVVE
B7: CFA0675 (antibody, V domains shown)
VH: B6 VH with K70R
VL: B6 VL with T85S
B8: CFA0672 (antibody, V domains shown)
VH: QSVEESGGRLVTPGTPLTLTCTASGFSLSGNAINWVRQAPGKGLEWIGCIYTGSDTTYYATWAKGRFTISKTSTTVDLKIASPTTEDTATYFCARGSGLWGPGTLVTVSS
VL: DVVMTQTPASVSAPVGGTVTIKCQASQNIYSLLAWYQQKPGQPPKLLIYHTSDLASGVPSRFRGSGSGTEFTLTISDLECADAATYYCQCTAYGSSDVGGTFGGGTTVVVE
B9: CFA0307 (antibody, V domains shown)
VH: QSLEESGGGLVKPGASLTLTCKASGIDFSNFYYICWVRQAPGKGLDLIACIYTVSGYTYYASWAKGRLTISKTSSTTVTLQMTSLTAADTATYFCARDLHAGITNLWGPGTLVTVSS
VL: AIEMTQTPFSVSAAVGGTVTIKCQASQNIYSNLAWYQQKPGQRPKLLIYGASNLESGVPSRFKGSGSGTEYTLTISDLECADAATYYCLQGYSYSNVDDAFGGGTEVVVK
B10: CFA0366 (antibody, V domains shown)
VH: QSLEESGGDLVKPGASLSLTCTAAGLDFSSSYYMCWVRQAPGKGLEWIACIYAGSSGIIYYANWAKGRFTISRPSSTTVTLQMTSLTAADTATYFCATYPTYGDGGHAFNLWGPGTLVTVSS
VL: AQVLTQTPSSVSAAVGGTVTINCQSSQSVYSSDYLSWYQQKPGQPPKLLIYEASKLASGVPPRFSGSGSGTQFTLTISGVQCDDAATYYCQGTYYSSGWYFAFGGGTEVVVK
B11: CFA0599 (antibody, V domains shown)
VH: QSVEESGGRLVTPGTPLTLTCTVSGLSLSDNTMTWVRQAPGKGLEWIGIISFGGDAYYASWAKGRFPISKTSTTVDLRITSPTTEDTATYFCARVGAGNIFWYFDLWGPGTLVTVSS
VL: AYDMTQTPASVEVSVGGTVTIKCQASESIYSALAWYQQKPGQPPKLLIYSASTLASGVPSRFKGSGSGTEYTLTISDLECADAATYYCQQYYSSTNVHNSFGGGTTVVVE
B12: 305LO16-SG422 (antibody, V domains shown)
VH: QVQLVESGGGLVQPGRSLRLSCAASGFTVHSSYYMAWVRQAPGKGLEWVGAIFTGSGAEYKAEWVKGRFTISRDNSKNTLYLQMNSLRAEDTAVYYCASDAGYDYPTHAMHYWGRGTLVTVSS
VL: DIQMTQSPSSLSASVGDRVTITCRASQGISSSLAWYQQKPGKAPKLLIYGASETESGVPSRFSGSGSGTDFTLTISSLQPEDFATYYCQNTKVGSSYGNTFGGGTKVEIKR

The target of one experiment is T2, recombinant human C5 (human, UniProt P01031 20-1676).
T2 construct: The same entry is used here for C5 in normal human serum in the functional rows; also called hC5; rhC5
The experiment in a line: SPR (BIACORE T200), antibody captured by ProA/G, recombinant human C5 injected, 37 degrees C, pH7.4; pH 7.4. On the technique in general: Surface plasmon resonance follows binding to a sensor surface in real time, without labels.
A word on the koff: it is the first-order rate constant of dissociation. As a reminder, the kon is the rate constant with which the complex forms. In the case of B1, the koff was 0.000589 s⁻¹ and the kon worked out at 38200 M⁻¹ s⁻¹.

With B2, the koff was 0.00169 s⁻¹ and the kon was determined as 474000 M⁻¹ s⁻¹.

As for B3, the koff is 0.00185 s⁻¹ and the kon amounted to 473000 M⁻¹ s⁻¹.

Consider B4, for which the koff is 9.77e-05 s⁻¹ and the kon came out at 628000 M⁻¹ s⁻¹.

In the case of B5, the koff turned out to be 0.000202 s⁻¹ and the kon came to 1.66e+06 M⁻¹ s⁻¹.

For the molecule B6, the off-rate constant (koff) was found to be 0.000626 s⁻¹ and the kon came to 365000 M⁻¹ s⁻¹.

In the case of B7, the koff is 0.000412 s⁻¹ and the kon worked out at 383000 M⁻¹ s⁻¹.

As to B8, the koff was 0.000183 s⁻¹ and the kon came to 523000 M⁻¹ s⁻¹.

Consider B9, for which the koff was 0.00263 s⁻¹ and the kon worked out at 324000 M⁻¹ s⁻¹.

For the molecule B10, the koff worked out at 0.00934 s⁻¹ and the kon is 1.04e+06 M⁻¹ s⁻¹.

In the case of B11, the koff worked out at 0.00281 s⁻¹ and the kon came to 474000 M⁻¹ s⁻¹.

In another experiment the target is T2, recombinant human C5. Briefly: SPR (BIACORE T200), antibody captured by ProA/G, recombinant human C5 injected, 37 degrees C, pH5.8; pH 5.8.
As for B1, the koff is 0.0183 s⁻¹ and the kon is 42700 M⁻¹ s⁻¹.

For B2, the koff stood at 0.0262 s⁻¹ and the kon stood at 150000 M⁻¹ s⁻¹.

In the case of B3, the koff was determined as 0.0301 s⁻¹ and the kon was found to be 122000 M⁻¹ s⁻¹.

Consider B4, for which the koff came to 7.39e-05 s⁻¹ and the kon was 1.24e+06 M⁻¹ s⁻¹.

For the molecule B5, the off-rate (koff) is 0.000224 s⁻¹ and the kon stood at 1.22e+06 M⁻¹ s⁻¹.

As for B6, the koff stood at 0.00939 s⁻¹ and the kon came to 282000 M⁻¹ s⁻¹.

Consider B7, for which the koff stood at 0.00661 s⁻¹ and the kon is 389000 M⁻¹ s⁻¹.

Regarding B8, the koff amounted to 0.00978 s⁻¹ and the kon worked out at 71100 M⁻¹ s⁻¹.

With B9, the koff was determined as 0.0334 s⁻¹ and the kon was found to be 204000 M⁻¹ s⁻¹.

As to B10, the koff amounted to 0.0703 s⁻¹ and the kon worked out at 935000 M⁻¹ s⁻¹.

As to B11, the koff worked out at 0.0373 s⁻¹ and the kon is 454000 M⁻¹ s⁻¹.

Another experiment addresses T2, recombinant human C5. The experiment in a line: SPR (BIACORE T200), ratio of kd of condition (2) and (1).
B12: the “pH dependency (ratio of dissociation rate at pH5.8 to that at pH7.4)” value came to 21.1.

Another experiment addresses T1, recombinant cynomolgus monkey C5. The experiment in a line: SPR (BIACORE T200), antibody captured by ProA/G, recombinant cynoC5 injected, 37 degrees C, pH7.4.
As to B1, the koff is 0.00067 s⁻¹ and the kon worked out at 12100 M⁻¹ s⁻¹.

For B2, the koff is 0.00156 s⁻¹ and the kon was determined as 266000 M⁻¹ s⁻¹.

As for B3, the koff is 0.00166 s⁻¹ and the kon stood at 305000 M⁻¹ s⁻¹.

In the case of B6, the koff was determined as 0.000493 s⁻¹ and the kon came to 314000 M⁻¹ s⁻¹.

Regarding B7, the koff is 0.000378 s⁻¹ and the kon turned out to be 294000 M⁻¹ s⁻¹.

Consider B8, for which the koff came to 0.00185 s⁻¹ and the kon stood at 641000 M⁻¹ s⁻¹.

Turning to B9, the koff turned out to be 0.00223 s⁻¹ and the kon is 290000 M⁻¹ s⁻¹.

As to B10, the koff is 0.00904 s⁻¹ and the kon amounted to 504000 M⁻¹ s⁻¹.

In the case of B11, the koff stood at 0.00235 s⁻¹ and the kon is 542000 M⁻¹ s⁻¹.
